{"source": "patent US20140309172", "key": {"[1]": {"target": "T1, Ac-YVAD-AMC (model substrate, from Enzo, Inc.)", "T1 chain": "YVAD"}, "[2]": {"target": "alpha-synuclein (wild-type, full-length human α-synuclein)"}}}
{"protein": "caspase-1 (ICE), purified, activated (protein) NPAMPTSSGSEGNVKLCSLEEAQRIWKQKSAEIYPIMDKSSRTRLALIICNEEFDSIPRRTGAEVDITGMTMLLQNLGYSVDVKKNLTASDMTTELEAFAHRPEHKTSDSTFLVFMSHGIREGICGKKHSEQVPDILQLNAIFNMLNTKNCPSLKDKPKVIIIQACRGDSPGVVWFKDSVGVSGNLSLPTTEEFEDDAIKKAHIEKDFIAFCSSTPDNVSWRHPTMGSVFIGRLIEHMQEYACSCDVEEIFRKVRFSFEQPDGRAQMPTTERVTLTRCFYLFPGH", "values": [{"measurement": "activity against a model substrate", "setting": "[1]", "value": 110, "unit": "µM/min/mg"}, {"measurement": "cleavage of alpha-synuclein in vitro (SDS-PAGE and western blotting with anti-synuclein antibody)", "setting": "[2]", "value": "Purified, activated caspase-1 does indeed cleave alpha-synuclein"}]}
